# Data taken from a protein production outcome set (Wang et al. 2014).
# Experiment: label from the status in PepcDB records
# 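Further: failed if final PepcDB status was selected cloned or expressed and not failed if soluble or beyond.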
row,Sequence,protein production
1,MRNNLSAYSNIETGEAATELECFPYSVQHNDEGVCLLVRMGPHRILLDCGLADISSIQKSLTPSVKRGNPPSPADLVLVTHAHPDHARGLLALHQAFPNLPIYGSEVTSKLLPLNWLDHNPQEIPQLCHALPLRSPVELQDGLVAEIFPCGHLPGAVAILLTYTTEQRSYKLLYTGDFFLSNSRLVEGLRLEELRGIDLNVLIIEGTYGTSRHPHRRNQENQLAERINRAISDRYSVVLPTPALGLGQELLMLLRSHHHFTGRDLDIWVDGAVAIGCDAYLELLPHLPASVQNFARHQPLFWDERVRPRVRRLQAENRSIVGKSPCIVLTDSTSDLEQYCQPETGPWLILLPEKIDIKVNKKYSAPTTVESYLLAQHSDGPGTTQLIHNLRPQHVVFVHGSPAYLADLTCLEELQNRYHIHSPAAETMVELLIGETFLQPAPPETNYEGELTELGTVITISIPEAITADPRWRQFADTGLIEARWQGEELVLRGLTQRELLNQNSDRNIPPEIDCCGTCRHQRGQRCWNPSSPLYNFRVTLEGHCPAFERLSNGE,failed
2,MYLISELAVKAGLSRTTLLYYEKLGLIRGQRLDNGYRYYNESDLQQLFLIQQLQSAGLSLKECEECLQAKLDRTLLERRLSQLDDEIEKKVRARELLLALLGERPQRELHHSLSKHAPNAYLSWLNTQGYSEKEALRLKWLSKDMNEHDIYMQDFMTVFASLQHWGPGSEQDSLKAISLMSMQNMQHILDIGCETGLSTLLLAENSSAHITAVDNEPIAIEQLEKQRQHSPWKEQISPVLGSMTALPFAAKSFDAIWAEGCVYIMGMENALKQWKPFLADNAILMVSDLVWLTENPKPEAQEFWQSEYPDIQSIPSRIKLFKKLGYEVMEHFSLGIDAWQNYWLPLQNRVQELKLRLTNSQALSDIEKEIAIYERSAAKDFTYQYFVLKLNH,failed
3,MTELRPGGPMYGPTPPLPLPTDRLQFAMPPMYESLDDERTHRKERLAGALRLFGRLGFEDGVSGHITARDPEYSDCFWVNPFGMPFKHVTVSDLVMVNASGQVIEGRYHVNQAAFTVHAQVHAARPDVVAVAHCHSVHGRALSALGDLLDPITQESCAFYEDHALYDAYTGVAVDAEEGRRIASALDTRKALVLRNHGLLTVGDSVDAAAWWFVSMERSCQVQLTARAAGRPVLIDHKQAVATREQLGGDLVAWINYQPLWQDISRSEPDLLS,failed
4,MHWTIIGGGIQGTAIAQKLLSSGLTTDLLTIIDPHETFCQRFNSYTNRIEMPYLRSPIVHHVHPQPFHLKQFAKQHQYTNAFYGPYQRPELTMFMNHIAHASKQYQLEDCLVQGLVQTLDKQEDKWHIKLEDGQIITTDCVVIAIGSTNIPFMPDILKDKQNVNHIFEKEHDQVVYDKTDHIVGSGITAAHLALKLLNHDNDKKI,failed
5,MAEPKQSSLSEVKTNVIGSRKEEKESMFHGKETHGRSEDIDEKTRVDDVKGPGVLGRMMEEMEAIVDAVTPNKSSDK,failed
6,NITPLKEVQLALAEREAMMQALFDQASQFTALLTPTGKVVKVNQRALDFAGITVDEIVDQDFWETPWWQASEQLKADLKSAIHQAAQGILIRYDVENLGNNGQKVILDFSIRPIYDTDQRIIFLLCEGRDITDKFRIQEALAESEERFRQTFQTTAVSSALISLD,failed
7,MPQLQKEWFDTWFDTPYYHILYSNRDESEAEVFLTNLMNHMAVPKGASILDLPCGKGRHTLFLAEKGYTLTGADLSVASIALAQSHAPAGVTFLVHDLRKPAWNESFDYVLNLFTSFGYFETEAEDRAAFTTLSKALKSGGSLVIDFMNVTRAVNLLKEEETKVMEGIEFQLKRYVKDGYIHKEIRFEADNTPFFFTERVKALTLDDFKEFFTFAGLTLVDTFGSYQLDAYDAAESDRLIMIAKKLEHHHHHH,not failed
8,MSESAKVWLVTGASSGFGRAIAEAAVAAGDTVIGTARRTEALDDLVAAYPDRAEAISLDVTDGERIDVVAADVLARYGRVDVLVNNAGRTQVGAFEETTERELRDLFELHVFGPARLTRALLPQMRERGSGSVVNISSFGGQLSFAGFSAYSATKAALEQLSEGLADEVAPFGIKVLIVEPGAFRTNLFGKGAAYFSEENPAYAEKVGPTRQLVQGSDGSQPGDPAKAAAAIRLALDAEKTPLRLALGGDAVDFLTGHLDSVRAELTEWEKVSRGTDFDTE,not failed
9,MVNFDEEVFRAYYEHKIKSFIKEELSNNLIKGNIFEFDIEKFLMHFPDACEVNDLIIERPKEIEEIILDIFKEAYVELFGEDKELEKIQIAFKNPKGCEKLIEEISAEDINKLVKFEGNILQAGKVNALLKKAVYYCNKRIKDENGGFLCKYTYTPCDGRVEIEIDDYFSEGEFIKDMLSPREVKKILENKKVWDKLVEKGKIPRCVDLKENDEVFKENLKEIKFILDEYDSIYVNIQEMEIQQPIDLMKNPEEPARSIRVFLENTPGIYAGRVNVIGRVMKREYRHNIPIYKIYIKSNYIKISESYNKIEVKDILRNEELIETLNELGRKKNIIDILSNYLISQIKGYELVKKAIFLQQIKGAFKFLPDGTPLRRDSHILLITDPGIGKSTMLRRIARLFPQNAYASVTTATGGGLTAIVTREATEIGDGWVVKPGVFVRANEGTACIDELTVDKNVMKYILEAMESQTIHVNKGGINVKLPARCAVLAACNPKRGRFDRNLTVIEQIDIPAPLLSRFDLIFPLMDKPNRKSDEEIAEHILNTHIETATKDYKILGAIDIDGITVDEKLLKYYIIYARSCAYIEENQDLYLGEFDETKLIMPYLTDKAKKMIKKYYLEMRKLGEGDNPIPITARQLEAIIRIAEMHAKARLSDKVEDVDAEVAISIIDDCLKQVAYDPETGTLDLDKIAGTPKSRRDKMDAVLNIIREIVSLRDDGLAPEEEIYEKAMAIGLSEKDVNDALEYLKKAGDIYNPRYGFWGLL,failed
10,MQSVSSMSSMDHFWLVIFCACVAFIPRFFPLLFFTKRKIPKWFNEWMRFVPVSLFTALVVKSVFIDSKYAVITSGNLGMIISAILVGFVAYRTRSMTLSVVIGLVSVMIFVLLIHI,failed
11,MQGIKRKLVYVTAYELIGMSISTLGLALLAGSTPTTTGPLAVVITTVAVTWNFIYNCLFEFWERRQAVRGRSIARRVAHAIGFQLTLVVYLIPLIAWWMGISLLEAFWLDLALIVLIPCYTFLFNWAFDRLFGLPTSALPAGEAASV,failed
12,MQPTTRLSFSQRHPFIFGFLLIMVAVALFTGATATFRHLTDAGSFGGPRIGIVRIEGMIGDVRKTLEWMRKLAEDRTVRGVLVRVDSPGGAVAPSQELHDAVKRLAADKPVVVSMGSLAASGGLMVSTGATRIVANPATITGSIGVKMEMPNVQGLMDKIGVARQTLVSGDLKDAGSPFRAMSEAERAYFQSIIMEMYGQFVSMIAEDRNIPVEKVRSFADGRILTGSQALELGLVDKLGSEAAAMDVLLALVDLKGEKPVFIEPPKERSWVREVLESALGIAPPQNMGQPAFLYY,failed
13,MILRSWARGVTLATICMFSLSSGVILAKNNRPTPLPTYQYPDVYNNYLQPVATAIDYHSGMVYLFNYENDKLIIVDPTSLSGWPGNVPLQHTLVFPEGDKIFITSDNTEEHAAYIIILKVNDINWDAGTVSLAVETVVAADNPGTPTEFPFVEPVNNVQAIPNWLVGRGTTQIHGPTILPYSDFVYLTELTSDRIRVINRKTNEFVSGVDPIAIPGYTEQTHGINFNRSGTIGLGTGYFFDNSVIDVYKPNRETGELQTIGQIRLGDEKRHAAFTHFVYWLDERYAVTASMQFDKTSLTPTTTKKIIPPSVWLLDTLEGTATKILDHTNHANGKGIFRSPSDIAVVNGKLYIAEEDSLDYTFANDGYISVFDLTDRYKPRFLKRLKPGRELPTGYAVAHTISPTPDNRYLIVASWVSGYVLKIDTETDTVVKIWGPNDGLIKPHGIYTAGGLR,failed
14,MKSALSDFILGKKGIYGILHIIILLMSLFLVISISIDTFKGIPFYTQSSYMKIQLWICIWFLFDFVLEFFLAKHKWRYIRTHFIFLLVAIPYQNIIAYYGWTFSPEVTYLLRFIPLLRGGYALAIVVGWLTYNRASSLFVSYLTMLLATVYFASLAFFVLEHKVNPLVTDYGDALWWAFMDVTTVGSNIIAMTTTGRVLSVLLAALGMMMFPIFTVYITNLIQQSNQKKKQYYAEEEEKTASA,failed
15,MSLRTQLIAVLIDDYSNPWFIDLIQSLSDVLTPKGYRLSVIDSLTSQAGTDPITSALSMRPDGIIIAQDIPDFTVPDSLPPFVIAGTRITQASTHDSVANDDFRGAEIATKHLIDLGHTHIAHLRVGSGAGLRRFESFEATMRAHGLEPLSNDYLGPAVEHAGYTETLALLKEHPEVTAIFSSNDITAIGALGAARELGLRVPEDLSIIGYDNTPLAQTRLINLTTIDDNSIGVGYNAALLLLSMLDPEAPHPEIMHTLQPSLIERGTCAPREGHHHHHH,not failed
16,MWNIATAAATLLVAFAATRAYAADIGYLAPPGVAANEFPSPQRPVARIVSPRRASEEHRDALNEAGQIARVLELKPGMTVGDIGAGSGYHTVRLSYLVAPAGSVVAQDVTRDYLIELARRTKLLKLTNVQFALGEPHDPRLPASSLDAAILVHMYHEIAQPYAFLYNLAPALKQGARVGIVDLELPTSKHGTPIELLRCELTAVGYREVATYKLEGDGGYLAVFSPPEVAGRKSPRDIVACRDPAGTR,failed
17,MRRVISIFRKLSAVYCHTGNFAEGIRVCKYALGRFTEMEDKYKCIFTFNMSLYYNYLGEYGKALNAITGFESVIKATYEDRYYKVLLLKADCYYGAERYAESLSIYNKLISITLKDDFNNLCVYYNNMTQVYLRMGKRDMAVNCINTVINNLHNISDDFEALPQIYAELGKSYLMMADNDKSIKYLTIALKLSKDFKYYSVTKDILNELSKIKGNSNKLKLKDEFIILTENMGRSYDSLNHSLVFNIIQYYTRLGDVASINELCEYCKERKVG,failed
18,MANTSSDWAGAPQNASADGEFVRDTNYIDDRIVADVPAGSEPIAQEDGTFHWPVEAGRYRLVAARACPWAHRTVITRRLLGLENVISLGLTGPTHDVRSWTFDLDPNHLDPVLQIPRLQDAYFNRFPDYPRGITVPALVEESSKKVVTNDYPSITIDFNLEWKQFHREGAPNLYPAELREEMAPVMKRIFTEVNNGVYRTGFAGSQEAHNEAYKRLWVALDWLEDRLSTRRYLMGDHITEADIRLYPTLVRFDAVYHGHFKCGRNKITEMPNLWGYLRDLFQTPGFGDTTDFTEIKQHYYITHAEINPTRIVPVGPDLSGFATPHGREKLGGSPFAEGVTLPGPIPAGEEVKNPEPFQK,not failed
19,AARNLSKEEYAANHPAGRIGKSLIFKVKDVMKKQEELPVCKEGDLIMDQLVELTSKGCGCLLVVDEHSRLIGTFTDGDLRRTLKASGEAIFKLSVGEMCNRKPRTIGPETMAVEAMKKMESPPSPVQFLPVVNEDNTLIGIVTLHGLVSA,failed
20,SKLNERSVAHYALSDSPADHMGFLRTWGGPGTPPTPSGTGRRCWFVLKGNLLFSFESREGRAPLSLVVLEGCTVELAEAPVPEEFAFAICFDAPGVRPHLLAAEGPAAQEAWVKVLSRASFGYMRLVVRELESQLQDARQSLALQRRSSWKSVASRCKPQAPNHRAAGLENGHCLSKDSSPVGLVEEAGSRSAGWGLAEWELQGPASLLLGKGQSPVSPETSCFSTLHDWYGQEIVELRQCWQKRAQGSHSKCEEQDRP,not failed
21,MAAITTGVVLLRWQLLSAVLMFLASTLNIRFRKSDYIGLAVISSGLGVVSACWFATGLLGITMMDLAAIWHNIEAVMVETMSQTPPEWPMVLT,failed
22,MTIAAAPPSSRFRAVRIWLTLVAALIAVMVLVGGATRLTESGLSIVEWKPVTGSLPPLTDTQWHAAFDGYKQIPQYRELNAGMTLDQFKTIFWWEWSHRLLGRVIGIVYLLPFLWFLWRGAIGPEWKRALWIIFALGALQGAVGWWMVASGLSQRTEVSQVRLATHLSLALIIYAAIVWTLRRMADGARVAAPVRLRVTALALLGLTFVQLYAGALVAGLRAGRLYNTWPEIDGALIPDAARLWFESPWWKNLFDNHLTVQFDHRMLAYALWTLAALHMIDALRTRAAARGAVQLFLALTAQATLGIFTVLYAAPIDLALVHQAMALVVLTLAVLQAERLTATRKDRTARDRGAAGRLAIPSEPFPSA,failed
